According to patent US20120171195A1:
Values belong to the substance of their own block, whether it stands above or below them.

Legend:
HLA-B*4101 (human) = HLA-B*4101 (human) (UniProt P01889); experiment: Luminex beads; MAb 1/1600; competitor IgG-free serum
HLA-B*2708 (human) = HLA-B*2708 (human) (UniProt P01889); experiment: as above
HLA-B*1402 (human) = experiment: as above
HLA-Cw*1701 (human) = experiment: as above
HLA-B*1511 (human) = HLA-B*1511 (human) (UniProt P01889); experiment: as above
HLA-Cw*0302 (human) = HLA-Cw*0302 (human) (UniProt P10321); experiment: as above
HLA-B*4402 (human) = experiment: as above
HLA-Cw*0304 (human) = experiment: as above
HLA-B*4002 (human) [1] = molecular target: HLA-B*4002 (human) (UniProt P01889); experiment: as above
HLA-B*4801 (human) = HLA-B*4801 (human) (UniProt P01889); experiment: as above
HLA-B*5101 (human) [2] = experiment: as above
HLA-B*5201 (human) = experiment: as above
HLA-Cw*0303 (human) = experiment: as above
HLA-Cw*0702 (human) [3] = molecular target: HLA-Cw*0702 (human) (UniProt P10321); experiment: as above
HLA-Cw*1502 (human) = experiment: as above
HLA-Cw*0801 (human) = HLA-Cw*0801 (human) (UniProt P10321); experiment: as above
HLA-Cw*1402 (human) [4] = molecular target: HLA-Cw*1402 (human) (UniProt P10321); experiment: as above
HLA-B*1513 (human) = experiment: Luminex beads; MAb 1/1600; competitor rHLA-E
HLA-B*4002 (human) [5] = molecular target: HLA-B*4002 (human) (UniProt P01889); experiment: Luminex beads; MAb 1/1600; competitor rHLA-E
HLA-B*5101 (human) [6] = experiment: Luminex beads; MAb 1/1600; competitor rHLA-E
HLA-Cw*0702 (human) [7] = molecular target: HLA-Cw*0702 (human) (UniProt P10321); experiment: Luminex beads; MAb 1/1600; competitor rHLA-E
HLA-Cw*1802 (human) = HLA-Cw*1802 (human) (UniProt P10321); experiment: Luminex beads; MAb 1/1600; competitor rHLA-E
HLA-Cw*1402 (human) [8] = molecular target: HLA-Cw*1402 (human) (UniProt P10321); experiment: Luminex beads; MAb 1/1600; competitor rHLA-E
HLA-B*3901 (B39) (human) = HLA-B*3901 (B39) (human) (UniProt P01889); experiment: Luminex single-antigen beads; MEM-E/02 1/600; serum Mi59 1/100
HLA-A*3002 (A30) (human) = HLA-A*3002 (A30) (human) (UniProt P04439); experiment: as above
HLA-B*1401 (B64) (human) = HLA-B*1401 (B64) (human) (UniProt P01889); experiment: as above
HLA-B*5401 (B54) (human) = HLA-B*5401 (B54) (human) (UniProt P01889); experiment: as above
HLA-B*2708 (B27) (human) = HLA-B*2708 (B27) (human) (UniProt P01889); experiment: as above
HLA-A*2501 (A25) (human) = experiment: as above
HLA-B*1511 (B75) (human) = HLA-B*1511 (B75) (human) (UniProt P01889); experiment: as above
[9] = molecular target: HLA-Cw*0401 (Cw4) (human); experiment: as above
HLA-A*2402 (A24) (human) = HLA-A*2402 (A24) (human) (UniProt P04439); experiment: as above
[10] = molecular target: HLA-Cw*1802 (Cw18) (human) (UniProt P10321); experiment: as above
HLA-B*4801 (B48) (human) = HLA-B*4801 (B48) (human) (UniProt P01889); experiment: as above
[11] = molecular target: HLA-Cw*1203 (Cw12) (human) (UniProt P10321); experiment: as above
HLA-A*2601 (A26) (human) = experiment: as above
HLA-B*3801 (B38) (human) = experiment: as above
HLA-B*1301 (B13) (human) = experiment: as above
HLA-B*4501 (B45) (human) = experiment: as above
[12] = molecular target: HLA-Cw*0801 (Cw8) (human) (UniProt P10321); experiment: as above

MFI (HLA-B*4101 (human)): 392 MFI
MFI (HLA-B*2708 (human)): 272 MFI
MFI (HLA-B*1402 (human)): 301 MFI
MFI (HLA-Cw*1701 (human)): 392 MFI
MFI (HLA-B*1511 (human)): 388 MFI
MFI (HLA-Cw*0302 (human)): 335 MFI
MFI (HLA-B*4402 (human)): 248 MFI
MFI (HLA-Cw*0304 (human)): 370 MFI
MFI (HLA-B*4002 (human) [1]): 403 MFI
MFI (HLA-B*4801 (human)): 412 MFI
MFI (HLA-B*5101 (human) [2]): 281 MFI
MFI (HLA-B*5201 (human)): 337 MFI
MFI (HLA-Cw*0303 (human)): 332 MFI
MFI (HLA-Cw*0702 (human) [3]): 295 MFI
MFI (HLA-Cw*1502 (human)): 317 MFI
MFI (HLA-Cw*0801 (human)): 865 MFI
MFI (HLA-Cw*1402 (human) [4]): 432 MFI
MFI (HLA-B*1513 (human)): 246 MFI
MFI (HLA-B*4002 (human) [5]): 196 MFI
MFI (HLA-B*5101 (human) [6]): 99 MFI
MFI (HLA-Cw*0702 (human) [7]): 88 MFI
MFI (HLA-Cw*1802 (human)): 30 MFI
MFI (HLA-Cw*1402 (human) [8]): 48 MFI
Substance: murine monoclonal antibody (MAb) MEM-E/02

MFI (HLA-B*3901 (B39) (human)): < 500 MFI
MFI (HLA-A*3002 (A30) (human)): < 500 MFI
MFI (HLA-B*1401 (B64) (human)): < 500 MFI
MFI (HLA-B*5401 (B54) (human)): < 500 MFI
MFI (HLA-B*2708 (B27) (human)): < 500 MFI
MFI (HLA-A*2501 (A25) (human)): < 500 MFI
MFI (HLA-B*1511 (B75) (human)): < 500 MFI
MFI [9]: 4590 MFI
MFI (HLA-A*2402 (A24) (human)): < 500 MFI
MFI [10]: 1080 MFI
MFI (HLA-B*4801 (B48) (human)): < 500 MFI
MFI [11]: < 500 MFI
MFI (HLA-A*2601 (A26) (human)): < 500 MFI
MFI (HLA-B*3801 (B38) (human)): < 500 MFI
MFI (HLA-B*1301 (B13) (human)): < 500 MFI
MFI (HLA-B*4501 (B45) (human)): < 500 MFI
MFI [12]: < 500 MFI
Substance: murine monoclonal antibody MAb MEM-E/02
